Columns and labels:
[1] = target: T1, human TNFR1 (recombinant, R&D Systems cat no. 636-R1/CF, biotinylated) (human, UniProt P19438 30-211, limits assumed, biotinylated with EZ-Link NHS-LC-LC-biotin); assay: BIAcore, human TNFR1
T1 construct: it is not tied to the BIAcore reagent; also called p55; hTNFR1
T1 sequence (looked up): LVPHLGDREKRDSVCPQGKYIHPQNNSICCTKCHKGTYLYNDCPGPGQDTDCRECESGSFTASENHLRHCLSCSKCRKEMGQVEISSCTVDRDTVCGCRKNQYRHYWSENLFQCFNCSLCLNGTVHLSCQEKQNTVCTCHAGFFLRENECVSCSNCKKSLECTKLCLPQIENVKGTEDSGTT

[2] = target: T2, human TNFR1 on MRC-5 cells (human, UniProt P19438 30-455); assay: cell-based or functional assay
T2 sequence (looked up): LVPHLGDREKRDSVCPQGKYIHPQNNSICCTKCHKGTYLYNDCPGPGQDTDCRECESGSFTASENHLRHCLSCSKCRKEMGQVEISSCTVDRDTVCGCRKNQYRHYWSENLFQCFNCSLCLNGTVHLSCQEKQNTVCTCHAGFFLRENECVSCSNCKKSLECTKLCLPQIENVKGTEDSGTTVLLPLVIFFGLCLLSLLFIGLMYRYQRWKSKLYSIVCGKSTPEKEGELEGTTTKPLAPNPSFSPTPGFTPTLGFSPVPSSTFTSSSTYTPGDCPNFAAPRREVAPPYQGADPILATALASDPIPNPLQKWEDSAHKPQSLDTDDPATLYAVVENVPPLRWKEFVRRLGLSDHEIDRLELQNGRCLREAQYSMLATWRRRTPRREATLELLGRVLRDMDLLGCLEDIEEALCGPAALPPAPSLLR

[3] = target: T2, human TNFR1 on MRC-5 cells; assay: cell-based or functional assay; remark: listed apart in the source
[4] = target: T3, mouse TNFR1 on L929 cells (mouse, UniProt P25118 30-454); assay: cell-based or functional assay
T3 sequence (looked up): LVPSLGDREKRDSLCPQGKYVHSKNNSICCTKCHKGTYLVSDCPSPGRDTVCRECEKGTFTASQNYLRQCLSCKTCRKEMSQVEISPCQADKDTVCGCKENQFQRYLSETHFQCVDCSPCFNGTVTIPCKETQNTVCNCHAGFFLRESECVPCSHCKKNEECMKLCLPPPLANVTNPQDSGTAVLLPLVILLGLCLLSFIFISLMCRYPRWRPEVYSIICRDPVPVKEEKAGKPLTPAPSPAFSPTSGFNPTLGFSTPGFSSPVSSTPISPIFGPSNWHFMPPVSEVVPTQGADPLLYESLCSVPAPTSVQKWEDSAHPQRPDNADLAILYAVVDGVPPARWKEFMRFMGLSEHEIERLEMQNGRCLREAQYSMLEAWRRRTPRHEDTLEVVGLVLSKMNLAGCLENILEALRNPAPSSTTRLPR

[5] = target: T4, Cynomologus monkey TNFR1 on CYNOM-K1 cells (Cynomolgus monkey, UniProt Q2PFV5 30-455); assay: cell-based or functional assay
T4 sequence: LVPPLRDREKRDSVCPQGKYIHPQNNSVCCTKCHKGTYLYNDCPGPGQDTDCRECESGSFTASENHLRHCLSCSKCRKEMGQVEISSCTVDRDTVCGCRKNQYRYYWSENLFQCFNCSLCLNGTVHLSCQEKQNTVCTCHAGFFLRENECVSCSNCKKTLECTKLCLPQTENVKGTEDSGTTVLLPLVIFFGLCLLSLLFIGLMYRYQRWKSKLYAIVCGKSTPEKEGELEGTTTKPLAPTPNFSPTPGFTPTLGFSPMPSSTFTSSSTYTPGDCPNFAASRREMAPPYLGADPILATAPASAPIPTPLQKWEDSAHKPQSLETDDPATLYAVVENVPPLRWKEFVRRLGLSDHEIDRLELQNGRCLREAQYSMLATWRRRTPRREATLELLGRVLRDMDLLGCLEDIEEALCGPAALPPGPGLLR

[6] = target: T1, human TNFR1 (recombinant, R&D Systems …); assay: BIAcore, human TNFR1 on SA chip
Excerpt: (§1) BIAcore was done to determine the association and dissociation rates of the different dAbs and in that way establish their binding affinity for both human and mouse TNFR1. Experiments were done using biotinylated TNFR1 (R&D Systems), of the respective species, coupled to streptavidin-coated BIAcore chips followed by injection of a concentration range of the dAbs.

[7] = target: T5, mouse TNFR1 (recombinant, R&D Systems cat no. 425-R1-050/CF, biotinylated) (mouse, UniProt P25118 22-212, biotinylated with EZ-Link NHS-LC-LC-biotin); assay: BIAcore, mouse TNFR1 on SA chip
T5 construct: also called murine TNFR1; biotinylated mouse TNFR1
T5 sequence (looked up): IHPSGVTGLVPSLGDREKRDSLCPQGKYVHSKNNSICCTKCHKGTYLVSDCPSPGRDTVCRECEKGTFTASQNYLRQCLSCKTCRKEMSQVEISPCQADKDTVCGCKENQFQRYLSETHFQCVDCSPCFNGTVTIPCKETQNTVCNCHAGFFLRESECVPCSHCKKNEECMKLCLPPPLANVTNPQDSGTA
Excerpt: as §1

[8] = target: T6, human serum albumin (HSA, Sigma-Aldrich) (human, UniProt P02768 25-609); assay: BIAcore, HSA on CM5 chip
T6 construct: also called human albumin
Experimental: (§2) FIG. 23. BIAcore analysis for binding of DOM0100-AlbudAb in-line fusions to human serum albumin (HSA). HSA (Sigma-Aldrich) was coated on a BIAcore CM5 chip using EDC/NHS chemistry according to manufacturer's instructions. Subsequently, the DMS constructs, each consisting N-terminally to C-terminally of an anti-TNFR1 dAb-Linker-AlbudAb and identified in Table 6, were injected at 1 μM over the HSA surface and binding was monitored. […] The corresponding BIAcore trace for each DMS clone is indicated with an arrow.

[9] = target: T7, mouse serum albumin (MSA, Sigma-Aldrich) (mouse, UniProt P07724 25-608); assay: BIAcore, MSA on CM5 chip
T7 construct: also called mouse albumin
Experimental: as §2, with “22.” for “23.”, “mouse” for “human”, “(MSA). MSA” for “(HSA). HSA”, “MSA” for “HSA”
After expression and purification, all constructs were tested on the BIAcore for binding to both mouse and human serum albumin. The off-rates were determined and used to discriminate between the AlbudAbs for their suitability in prolonging the half-life of the fusion molecule. Whereas the linker had little influence on the affinity of the AlbudAb for albumin, a significant difference existed between the dAbs and their albumin affinity. The best AlbudAb for mouse binding was DOM7h-11-15 followed by DOM7m-16 and DOM7h-11-12 (FIG. 22).

T6 sequence (P02768 25-609 limits assumed): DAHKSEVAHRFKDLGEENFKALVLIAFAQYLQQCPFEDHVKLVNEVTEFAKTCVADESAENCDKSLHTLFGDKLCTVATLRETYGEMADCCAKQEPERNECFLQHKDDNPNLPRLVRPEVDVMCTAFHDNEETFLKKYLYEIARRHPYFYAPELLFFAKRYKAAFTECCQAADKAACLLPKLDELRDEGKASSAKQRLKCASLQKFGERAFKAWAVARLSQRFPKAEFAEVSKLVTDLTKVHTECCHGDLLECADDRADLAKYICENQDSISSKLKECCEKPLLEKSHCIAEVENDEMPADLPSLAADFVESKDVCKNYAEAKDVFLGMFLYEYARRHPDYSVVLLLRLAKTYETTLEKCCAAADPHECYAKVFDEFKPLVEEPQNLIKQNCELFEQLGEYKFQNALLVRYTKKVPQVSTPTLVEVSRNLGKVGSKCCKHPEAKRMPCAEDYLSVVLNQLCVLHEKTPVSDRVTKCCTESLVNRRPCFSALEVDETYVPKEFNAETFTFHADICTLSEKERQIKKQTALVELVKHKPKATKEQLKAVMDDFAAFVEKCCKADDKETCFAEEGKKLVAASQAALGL

B1: DOM1h-574-12 (other)
VH: EVQLLESGGGLVQPGGSLRLSCAASGFTFVKYSMGWVRQAPGKGLEWVSQISNTGDHTYYADSVKGRFTISRDNSKNTLYLQMNSLRAEDTAVYYCAKYTGRWEPFDYWGQGTLVTVSS
notes: VH dAb
[1]
  Kd: 23 nM
[2]
  MRC-5 ND50 (TNFα-mediated IL-8 release): 130 nM

B2: DOM1h-574-13 (other)
VH: EVQLLESGGGLVQPGGSLRLSCAASGFTFVKYSMGWVRQAPGKGLEWVSQISNTGDRTYYADSVKGRFTISRDNSKNTLYLQMNSLRAEDTAVYYCAKYTGRWEPFDYWGQGTLVTVSS
notes: VH dAb
[1]
  Kd: 44 nM
[2]
  MRC-5 ND50 (TNFα-mediated IL-8 release): 300 nM

B3: DOM1h-574-17 (other)
VH: EVQLLESGGGLVQPGGSLRLSCAASGFTFVKYSMGWVRQAPGKGPEWVSQISNTGDHTYYADSVKGRFTISRDNSKNTLYLQMNSLRAEDTAVYYCAIYTGRWEPFDYWGQGTLVTVSS
notes: VH dAb
[1]
  Kd: 8.4 nM
[2]
  MRC-5 ND50 (TNFα-mediated IL-8 release): 20 nM

B4: DOM1h-574-18 (other)
VH: EVQLLESGGGLVQPGGSLRLSCAASGFTFGKYSMGWVRQAPGKDLEWVSQISNTGDRTYYADSVKGRFTISRDNSKNTLYLQMNSLRAEDTAVYYCAIYTGRWEPFDYWGQGTLVTVSS
notes: VH dAb
[1]
  Kd: 4.1 nM
[2]
  MRC-5 ND50 (TNFα-mediated IL-8 release): 17 nM

B5: DOM1h-574-139 (other)
VH: EVQLLESGGGLVQPGGSLRLSCAASGFTFLKYSMGWVRQAPGKGLEWVSQISDTADRTYYAHSVKGRFTISRDNSKNTLYLQMNSLRAEDTAVYYCAIYTGRWAPFEYWGQGTLVTVSS
notes: VH dAb
[3]
  Human MRC5 ND50: 1.1 nM
[4]
  Mouse L929 ND50: 28 nM
[5]
  Cynomologus CYNOM-K1 ND50: 1.8 nM
[6]
  Kd: 0.27 nM
  koff: 3.7e-05 s⁻¹
  kon: 140000 M⁻¹ s⁻¹
[7]
  Kd: 4.4 nM
  koff: 0.0003 s⁻¹
  kon: 70000 M⁻¹ s⁻¹

B6: DOM1h-574-156 (other)
VH: EVQLLESGGGLVQPGGSLRLSCAASGFTFFKYSMGWVRQAPGKGLEWVSQISDTADRTYYAHSVKGRFTISRDNSKNTLYLQMNSLRAEDTAVYYCAIYTGRWVPFEYWGQGTLVTVSS
notes: VH dAb
[3]
  Human MRC5 ND50: 0.9 nM
[4]
  Mouse L929 ND50: 22 nM
[6]
  Kd: 0.15 nM
  koff: 4.3e-05 s⁻¹
  kon: 300000 M⁻¹ s⁻¹
[7]
  Kd: 2.1 nM
  koff: 0.0003 s⁻¹
  kon: 140000 M⁻¹ s⁻¹

B7: DOM1h-574-162 (other)
VH: EVQLLESGGGLVQPGGSLRLSCAASGFTFFKYSMGWVRQAPGKGLEWVSQISDTADRTYYSHSVKGRFTISRDNSKNTLYLQMNSLRAEDTAVYYCAIYTGRWVPFEYWGQGTLVTVSS
notes: VH dAb
[3]
  Human MRC5 ND50: 1.2 nM
[4]
  Mouse L929 ND50: 27 nM
[6]
  Kd: 0.15 nM
  koff: 4.4e-05 s⁻¹
  kon: 290000 M⁻¹ s⁻¹
[7]
  Kd: 2.5 nM
  koff: 0.00034 s⁻¹
  kon: 140000 M⁻¹ s⁻¹

B8: DMS0189 (bispecific antibody)
chain: EVQLLESGGGLVQPGGSLRLSCAASGFTFVKYSMGWVRQAPGKGPEWVSQISNTGDRTYYADSVKGRFTISRDNSKNTLYLQMNSLRAEDTAVYYCAIYTGRWEPFDYWGQGTLVTVSSASTDIQMTQSPSSLSASVGDRVTITCRASRPIGTTLSWYQQKPGKAPKLLILWNSRLQSGVPSRFSGSGSGTDFTLTISSLQPEDFATYYCAQAGTHPTTFGQGTKVEIKRAAAEQKLISEEDLN
notes: anti-TNFR1 dAb / AlbudAb in-line fusion
[8]
  koff: 0.017 s⁻¹
[9]
  koff: 0.13 s⁻¹

B9: DMS0190 (bispecific antibody)
chain: EVQLLESGGGLVQPGGSLRLSCAASGFTFVKYSMGWVRQAPGKGPEWVSQISNTGDRTYYADSVKGRFTISRDNSKNTLYLQMNSLRAEDTAVYYCAIYTGRWEPFDYWGQGTLVTVSSASTSGPSDIQMTQSPSSLSASVGDRVTITCRASRPIGTTLSWYQQKPGKAPKLLILWNSRLQSGVPSRFSGSGSGTDFTLTISSLQPEDFATYYCAQAGTHPTTFGQGTKVEIKRAAAEQKLISEEDLN
notes: as for B8
[8]
  koff: 0.019 s⁻¹
[9]
  koff: 0.16 s⁻¹

B10: DMS0192 (bispecific antibody)
chain: EVQLLESGGGLVQPGGSLRLSCAASGFTFVKYSMGWVRQAPGKGPEWVSQISNTGDRTYYADSVKGRFTISRDNSKNTLYLQMNSLRAEDTAVYYCAIYTGRWEPFDYWGQGTLVTVSSASTSGPSDIQMTQSPSSLSASVGDRVTITCRASQSIIKHLKWYQQKPGKAPKLLIYGASRLQSGVPSRFSGSGSGTDFTLTISSLQPEDFATYYCQQGARWPQTFGQGTKVEIKRAAAEQKLISEEDLN
notes: as for B8
[8]
  binding result: no binding (tested: 1 µM)
[9]
  koff: 0.09 s⁻¹

B11: DMS0191 (bispecific antibody)
chain: EVQLLESGGGLVQPGGSLRLSCAASGFTFVKYSMGWVRQAPGKGPEWVSQISNTGDRTYYADSVKGRFTISRDNSKNTLYLQMNSLRAEDTAVYYCAIYTGRWEPFDYWGQGTLVTVSSASTDIQMTQSPSSLSASVGDRVTITCRASQSIIKHLKWYQQKPGKAPKLLIYGASRLQSGVPSRFSGSGSGTDFTLTISSLQPEDFATYYCQQGTRWPQTFGQGTKVEIKRAAAEQKLISEEDLN
notes: as for B8
[8]
  binding result: no binding (tested: 1 µM)
[9]
  koff: 0.11 s⁻¹

From patent US20120107330A1 (published 2012)
